Here are results for one protein from patent publication US7045617.

The data set has as its target T1, IRS727 peptide substrate.
T1 chain: KKKLPATGDYMNMSPVGD

B1: insulin receptor protein tyrosine kinase (IRK), activated recombinant (protein)
chain: VFPCSVYVPDEWEVSREKITLLRELGQGSFGMVYEGNARDIIKGEAETRVAVKTVNESASLRERIEFLNEASVMKGFTCHHVVRLLGVVSKGQPTLVVMELMAHGDLKSYLRSLRPEAENNPGRPPPTLQEMIQMAAEIADGMAYLNAKKFVHRDLAARNCMVAHDFTVKIGDFGMTRDIYETDYYRKGGKGLLPVRWMAPESLKDGVFTTSSDMWSFGVVLWEITSLAEQPYQGLSNEQVLKFVMDGGYLDQPDNCPERVTDLMRMCWQFNPKMRPTFLEIVNLLKDDLHPSFPEVSFFHSEENK
Regarding B1, the “Km app of the peptide substrate” value is reported as “Km app (IRS727)=280 µM”.
